Reference: US20210230266A1 (SINGAPORE HEALTH SERVICES PTE, published 2021)

T1: Human IL-11 (human, UniProt P20809 22-199)
T1 construct: Recombinant human IL-11 (GenScript Cat. No. Z03108-1) or IL-11 secreted by human cells; the mature form is said to have 178 residues; also called recombinant human IL-11; endogenously produced IL-11
T1 sequence: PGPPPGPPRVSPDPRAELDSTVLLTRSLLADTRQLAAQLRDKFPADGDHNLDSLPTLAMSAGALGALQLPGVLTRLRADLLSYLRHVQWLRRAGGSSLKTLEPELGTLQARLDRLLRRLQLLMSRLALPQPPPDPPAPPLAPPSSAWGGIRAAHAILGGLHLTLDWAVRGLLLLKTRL

T2: Mouse IL-11 (mouse, UniProt P47873 22-199, limits assumed)
T2 construct: also called murine IL-11; recombinant murine IL-11
T2 sequence (looked up): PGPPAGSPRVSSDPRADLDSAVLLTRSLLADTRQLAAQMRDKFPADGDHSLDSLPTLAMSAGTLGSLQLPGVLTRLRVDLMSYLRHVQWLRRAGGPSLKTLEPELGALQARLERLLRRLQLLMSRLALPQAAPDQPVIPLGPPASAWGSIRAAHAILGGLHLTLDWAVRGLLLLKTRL


Key:
[1] = molecular target: T1, Human IL-11; test: SPR, Single Cycle Kinetics, BIAcore T200; human IL-11 immobilised on CM5 chip, antibody in IgG1 format as analyte, 1:1 model
[2] = molecular target: T1, Human IL-11; test: ELISA
Procedure: (§1) The soluble scFv were produced by recombinant expression in E. coli, and analysed for their ability to bind to human IL-11 and murine IL-11 by ELISA. Briefly, the respective antigen was coated to wells of an ELISA plate, the cell culture supernatant containing the respective scFv was added at a 1:2 dilution, and binding was detected.

[3] = molecular target: T2, Mouse IL-11; test: ELISA
Procedure: as §1

[4] = molecular target: T1, Human IL-11; test: cell-based or functional assay
[5] = molecular target: T1, Human IL-11; test: ELISA on coated recombinant human IL-11 (100 ng/well), scFv-Fc
Procedure: The light chain shuffled anti-IL-11 antibodies were analysed to determine the EC50 for binding to human IL-11 by ELISA according to standard methods. Briefly, wells of microtiter plates were coated with recombinant human IL-11 (100 ng/well), scFv-Fc comprising the VH and VL domains of the clones were added in a dilution series and antibody binding was detected using a polyclonal antibody detection system.

[6] = molecular target: T1, Human IL-11; test: SPR (BIAcore T200) single cycle kinetics, human IL-11 on CM5 chip, 1:1 model
Source text: HEK293 EBNDA cells were transfected with vectors encoding scFv corresponding to YU100-H01, 01A, 01G, 01I, 01L, 01Q, 01S, 01T, 01V, YU100-G08, 02A, 02G, 02I, 02L, 02Q, 02S, 02T or 02V.

Row | Binder | Kd [1] | koff [1] | kon [1] | Kd [6] | koff [6] | kon [6] | further results
1 | 01A (antibody, IgG1, V domains shown, C91A variant of the YU100-H01 VL) VH: QVQLVQSGGGVVQPGRSLRLSCAASGFTFSSYAMHWVRQAPGKGLEWVAVISYDGSNKYYADSVKGRFTISRDNSKNTLYLQMNSLRAEDTAVYYCARIMGYDYGDYDVVDYWGQGTLVTVSS VL: QSALTQPRSVSGSPGQSVTISCTGTSSDVGAYNYVSWYQQHPGKAPKLMIYDVSERPSGVPDRFSGSKSGNTASLTISGLQAEDEADYYCASYAGSYTWVFGGGTKLTVLG | 62.6 nM | 0.00081 s⁻¹ | 12900 M⁻¹ s⁻¹ |  |  |  | 
2 | 01L (antibody, IgG1, V domains shown, C91L variant of the YU100-H01 VL) VH: QVQLVQSGGGVVQPGRSLRLSCAASGFTFSSYAMHWVRQAPGKGLEWVAVISYDGSNKYYADSVKGRFTISRDNSKNTLYLQMNSLRAEDTAVYYCARIMGYDYGDYDVVDYWGQGTLVTVSS VL: QSALTQPRSVSGSPGQSVTISCTGTSSDVGAYNYVSWYQQHPGKAPKLMIYDVSERPSGVPDRFSGSKSGNTASLTISGLQAEDEADYYCLSYAGSYTWVFGGGTKLTVLG | 33.5 nM | 0.000526 s⁻¹ | 15700 M⁻¹ s⁻¹ |  |  |  | 
3 | 01S (antibody, IgG1, V domains shown, C91S variant of the YU100-H01 VL) VH: QVQLVQSGGGVVQPGRSLRLSCAASGFTFSSYAMHWVRQAPGKGLEWVAVISYDGSNKYYADSVKGRFTISRDNSKNTLYLQMNSLRAEDTAVYYCARIMGYDYGDYDVVDYWGQGTLVTVSS VL: QSALTQPRSVSGSPGQSVTISCTGTSSDVGAYNYVSWYQQHPGKAPKLMIYDVSERPSGVPDRFSGSKSGNTASLTISGLQAEDEADYYCSSYAGSYTWVFGGGTKLTVLG | 107 nM | 0.000905 s⁻¹ | 8470 M⁻¹ s⁻¹ |  |  |  | 
4 | 01V (antibody, IgG1, V domains shown, C91V variant of the YU100-H01 VL) VH: QVQLVQSGGGVVQPGRSLRLSCAASGFTFSSYAMHWVRQAPGKGLEWVAVISYDGSNKYYADSVKGRFTISRDNSKNTLYLQMNSLRAEDTAVYYCARIMGYDYGDYDVVDYWGQGTLVTVSS VL: QSALTQPRSVSGSPGQSVTISCTGTSSDVGAYNYVSWYQQHPGKAPKLMIYDVSERPSGVPDRFSGSKSGNTASLTISGLQAEDEADYYCVSYAGSYTWVFGGGTKLTVLG | 84.7 nM | 0.000778 s⁻¹ | 9190 M⁻¹ s⁻¹ |  |  |  | 
5 | 01T (antibody, IgG1, V domains shown, C91T variant of the YU100-H01 VL) VH: QVQLVQSGGGVVQPGRSLRLSCAASGFTFSSYAMHWVRQAPGKGLEWVAVISYDGSNKYYADSVKGRFTISRDNSKNTLYLQMNSLRAEDTAVYYCARIMGYDYGDYDVVDYWGQGTLVTVSS VL: QSALTQPRSVSGSPGQSVTISCTGTSSDVGAYNYVSWYQQHPGKAPKLMIYDVSERPSGVPDRFSGSKSGNTASLTISGLQAEDEADYYCTSYAGSYTWVFGGGTKLTVLG | 17.1 nM | 0.0127 s⁻¹ | 742000 M⁻¹ s⁻¹ |  |  |  | 
6 | 01G (antibody, IgG1, V domains shown, C91G variant of the YU100-H01 VL) VH: QVQLVQSGGGVVQPGRSLRLSCAASGFTFSSYAMHWVRQAPGKGLEWVAVISYDGSNKYYADSVKGRFTISRDNSKNTLYLQMNSLRAEDTAVYYCARIMGYDYGDYDVVDYWGQGTLVTVSS VL: QSALTQPRSVSGSPGQSVTISCTGTSSDVGAYNYVSWYQQHPGKAPKLMIYDVSERPSGVPDRFSGSKSGNTASLTISGLQAEDEADYYCGSYAGSYTWVFGGGTKLTVLG | 560 nM | 0.000986 s⁻¹ | 1760 M⁻¹ s⁻¹ |  |  |  | 
7 | 01I (antibody, IgG1, V domains shown, C91I variant of the YU100-H01 VL) VH: QVQLVQSGGGVVQPGRSLRLSCAASGFTFSSYAMHWVRQAPGKGLEWVAVISYDGSNKYYADSVKGRFTISRDNSKNTLYLQMNSLRAEDTAVYYCARIMGYDYGDYDVVDYWGQGTLVTVSS VL: QSALTQPRSVSGSPGQSVTISCTGTSSDVGAYNYVSWYQQHPGKAPKLMIYDVSERPSGVPDRFSGSKSGNTASLTISGLQAEDEADYYCISYAGSYTWVFGGGTKLTVLG | 29.2 nM | 0.00269 s⁻¹ | 92100 M⁻¹ s⁻¹ |  |  |  | 
8 | 01Q (antibody, IgG1, V domains shown, C91Q variant of the YU100-H01 VL) VH: QVQLVQSGGGVVQPGRSLRLSCAASGFTFSSYAMHWVRQAPGKGLEWVAVISYDGSNKYYADSVKGRFTISRDNSKNTLYLQMNSLRAEDTAVYYCARIMGYDYGDYDVVDYWGQGTLVTVSS VL: QSALTQPRSVSGSPGQSVTISCTGTSSDVGAYNYVSWYQQHPGKAPKLMIYDVSERPSGVPDRFSGSKSGNTASLTISGLQAEDEADYYCQSYAGSYTWVFGGGTKLTVLG | 104 nM | 0.000966 s⁻¹ | 9290 M⁻¹ s⁻¹ |  |  |  | 
9 | YU100-G08 (antibody, human IgG1, V domains shown, Light chain shuffled human antibody; Only the variable domains are tied to the clone) VH: QVQLVQSGGGVVQPGRSLRLSCAASGFTFSSYGMHWVRQAPGKGLEWVAVISYDGSNKYYADSVKGRFTISRDNSKNTLYLQMNSLRAEDTAVYYCAKIGATDPLDYWGQGTLVTVSS VL: QSALTQPRSVSGSPGQSVTLSCTGTSSDVGGYNYVSWYQHYPGKAPKLMIFDVNERSSGVPDRFSGSKSGNTASLTISGLQAEDEADYYCCSYAGRYTWMFGGGTKVTVLG |  |  |  | 3.51 nM | 0.0013 s⁻¹ | 369000 M⁻¹ s⁻¹ | hIL11 - average signal [2]: 0.153; mIL11 - average signal [3]: 0.27; MMP2 production, Experiment 1 (human atrial fibroblasts + TGFB1) [4]: 42.3 ng/mL; MMP2 production, Experiment 2 (human atrial fibroblasts + TGFB1) [4]: 38 ng/mL; EC50 [5]: 0.028 µg/mL
10 | 02L (antibody, IgG1, V domains shown, C91L variant of the YU100-G08 VL) VH: QVQLVQSGGGVVQPGRSLRLSCAASGFTFSSYGMHWVRQAPGKGLEWVAVISYDGSNKYYADSVKGRFTISRDNSKNTLYLQMNSLRAEDTAVYYCAKIGATDPLDYWGQGTLVTVSS VL: QSALTQPRSVSGSPGQSVTLSCTGTSSDVGGYNYVSWYQHYPGKAPKLMIFDVNERSSGVPDRFSGSKSGNTASLTISGLQAEDEADYYCLSYAGRYTWMFGGGTKVTVLG |  |  |  | 4.36 nM | 0.00202 s⁻¹ | 463000 M⁻¹ s⁻¹ | 

Now from value to binder, other results behind:

Row | Kd [1] | koff [1] | kon [1] | Kd [6] | koff [6] | kon [6] | Binder | further results
11 |  |  |  | 35 nM | 0.00207 s⁻¹ | 59200 M⁻¹ s⁻¹ | 02T (antibody, IgG1, V domains shown, C91T variant of the YU100-G08 VL) VH: QVQLVQSGGGVVQPGRSLRLSCAASGFTFSSYGMHWVRQAPGKGLEWVAVISYDGSNKYYADSVKGRFTISRDNSKNTLYLQMNSLRAEDTAVYYCAKIGATDPLDYWGQGTLVTVSS VL: QSALTQPRSVSGSPGQSVTLSCTGTSSDVGGYNYVSWYQHYPGKAPKLMIFDVNERSSGVPDRFSGSKSGNTASLTISGLQAEDEADYYCTSYAGRYTWMFGGGTKVTVLG | 
12 |  |  |  | 10.4 nM | 0.00215 s⁻¹ | 207000 M⁻¹ s⁻¹ | 02V (antibody, IgG1, V domains shown, C91V variant of the YU100-G08 VL) VH: QVQLVQSGGGVVQPGRSLRLSCAASGFTFSSYGMHWVRQAPGKGLEWVAVISYDGSNKYYADSVKGRFTISRDNSKNTLYLQMNSLRAEDTAVYYCAKIGATDPLDYWGQGTLVTVSS VL: QSALTQPRSVSGSPGQSVTLSCTGTSSDVGGYNYVSWYQHYPGKAPKLMIFDVNERSSGVPDRFSGSKSGNTASLTISGLQAEDEADYYCVSYAGRYTWMFGGGTKVTVLG | 
13 |  |  |  | 4.46 nM | 0.00312 s⁻¹ | 699000 M⁻¹ s⁻¹ | YU100-G08_02A (antibody, V domains shown, C91A variant of the YU100-G08 VL) VH: QVQLVQSGGGVVQPGRSLRLSCAASGFTFSSYGMHWVRQAPGKGLEWVAVISYDGSNKYYADSVKGRFTISRDNSKNTLYLQMNSLRAEDTAVYYCAKIGATDPLDYWGQGTLVTVSS VL: QSALTQPRSVSGSPGQSVTLSCTGTSSDVGGYNYVSWYQHYPGKAPKLMIFDVNERSSGVPDRFSGSKSGNTASLTISGLQAEDEADYYCASYAGRYTWMFGGGTKVTVLG | 
14 |  |  |  | 5.84 nM | 0.00249 s⁻¹ | 426000 M⁻¹ s⁻¹ | 02Q (antibody, IgG1, V domains shown, C91Q variant of the YU100-G08 VL) VH: QVQLVQSGGGVVQPGRSLRLSCAASGFTFSSYGMHWVRQAPGKGLEWVAVISYDGSNKYYADSVKGRFTISRDNSKNTLYLQMNSLRAEDTAVYYCAKIGATDPLDYWGQGTLVTVSS VL: QSALTQPRSVSGSPGQSVTLSCTGTSSDVGGYNYVSWYQHYPGKAPKLMIFDVNERSSGVPDRFSGSKSGNTASLTISGLQAEDEADYYCQSYAGRYTWMFGGGTKVTVLG | 
15 |  |  |  | 4.99 nM | 0.00639 s⁻¹ | 1.28e+06 M⁻¹ s⁻¹ | 02S (antibody, IgG1, V domains shown, C91S variant of the YU100-G08 VL) VH: QVQLVQSGGGVVQPGRSLRLSCAASGFTFSSYGMHWVRQAPGKGLEWVAVISYDGSNKYYADSVKGRFTISRDNSKNTLYLQMNSLRAEDTAVYYCAKIGATDPLDYWGQGTLVTVSS VL: QSALTQPRSVSGSPGQSVTLSCTGTSSDVGGYNYVSWYQHYPGKAPKLMIFDVNERSSGVPDRFSGSKSGNTASLTISGLQAEDEADYYCSSYAGRYTWMFGGGTKVTVLG | 
